Experimental data published in PMC10873642.

Target: α-synuclein, 140-residue isoform (αSyn-140) (human) (UniProt P37840)

α-synuclein splice isoform αSyn-112 (lacking exon 5) (from UniProt P37840-2 1-112) (natural protein)
decrease in aggregation half-time (t1/2) by ThT fluorescence of 90% (45 µM) αSyn-140 co-incubated with 10% (5 µM) αSyn-112 monomers, against 100% (50 µM) αSyn-140: 25%
